# Laboratory results published in patent publication US20030086946A1.
# Molecular target: purified human folate receptor (hFR) (human) (UniProt P15328)
# Sequence of UniProt P15328 (P15328 25-234): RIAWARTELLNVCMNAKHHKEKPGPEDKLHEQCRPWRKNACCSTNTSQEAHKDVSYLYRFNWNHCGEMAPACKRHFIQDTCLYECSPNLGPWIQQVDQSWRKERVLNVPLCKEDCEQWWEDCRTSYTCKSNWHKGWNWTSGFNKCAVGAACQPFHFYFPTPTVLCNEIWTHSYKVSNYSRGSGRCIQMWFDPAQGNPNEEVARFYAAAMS
substance,measurement,value
wild-type (native) Clostridium septicum alpha toxin,hFR Binding (percent of wild type) (% of wild type),100
